From US20240287177A1 (Merck KGaA, published 2024)
Numbering of substitutions follows the chain as printed.

B1: VHH15 SEEDbody eff- (bispecific antibody, part only; not given: silenced SEED Fc and cetuximab Fab, V domains shown, not shown: another chain or arm of the molecule; a dimerising Fc or GST; small tags and cut ends)
VHH: DVQLQESGGGLVQAGGSLRLSCAVSGSTFRLNVMGWYRQAPGKLRDLVAGITADGGVTNYADSVKGRFIISRDNAKNTVYLQMNSLKPEDTAIYYCNTAPANWGSWGQGTQVTVSS
B2: VHH2 (parental, as tested in Example 9) (VHH)
VHH: DVQLQESGGGLVQAGGSLRLSCAVSGQTWTNYHIGWFRQAPGKARESVASIEWGGRGTYATDSVKGRFTISRDNAKNTVYLQMNSLKPEDTAVYYCAAQSSSRSPLESNYDYWGQGTQVTVSS
notes: expressed and measured by BLI 'as described in Experiment 1' (there: bispecific SEEDbody on anti-human Fc sensors)
B3: VHH2.11 (humanized) (VHH)
VHH: B2 VHH with D1E, Q5V, L11V, A14P, V24A, A44G, R45L, K87R, P88A, Q118L
notes: as for B2
B4: VHH2.15 (humanized) (VHH)
VHH: EVQLVESGGGVVQPGGSLRLSCAASGQTWTNYHIGWFRQAPGKGLESVASIEWGGRGTYATDSVKGRFTISRDNAKNTLYLQMNSLRAEDTAVYYCAAQSSSRSPLESNYDYWGQGTLVTVSS
notes: as for B2
B5: VHH2.6 (humanized) (VHH)
VHH: B4 VHH with A24V, F37V, L79V
notes: as for B2
B6: VHH2.1 (humanized) (VHH)
VHH: B4 VHH with P14A, A24V, G44A, L45R, L79V
notes: as for B2
B7: VHH2.3 (humanized) (VHH)
VHH: B4 VHH with A24V, G44A, L45R
notes: as for B2
B8: VHH2.8 (humanized) (VHH)
VHH: B4 VHH with A24V, S47W
notes: as for B2
B9: VHH2.5 (humanized) (VHH)
VHH: B4 VHH with A24V, L79V
notes: as for B2
B10: VHH2.12 (humanized) (VHH)
VHH: B4 VHH with S47W, L79V
notes: as for B2
B11: VHH2.2 (humanized) (VHH)
VHH: B4 VHH with A24V, G44A, L45R, L79V
notes: as for B2
B12: VHH2.7 (humanized) (VHH)
VHH: B4 VHH with A24V
notes: as for B2
B13: VHH7 SEEDbody eff- (bispecific antibody, part only; not given: silenced SEED Fc and cetuximab Fab, V domains shown, not shown: another chain or arm of the molecule; a dimerising Fc or GST; small tags and cut ends)
VHH: DVQLQESGGGLAQPGGSLRLSCAASGFTFSSYDMGWYRQVPGKECELVAAIFSAGGSTIYADSVKGRFTISRDNAKNTVFLQMNSLKPEDTAVYYCNKAPPFTTIQPTCVMIDTQLGAWGQGTQVTVSS
B14: VHH8 SEEDbody eff- (bispecific antibody, part only; not given: silenced SEED Fc and cetuximab Fab, V domains shown, not shown: another chain or arm of the molecule; a dimerising Fc or GST; small tags and cut ends)
VHH: B13 VHH with V40A, G55D, R72S, T108M
B15: VHH16 SEEDbody eff- (bispecific antibody, part only; not given: silenced SEED Fc and cetuximab Fab, V domains shown, not shown: another chain or arm of the molecule; a dimerising Fc or GST; small tags and cut ends)
VHH: DVQLQESGGGLVQPGGSLRLSCTASGSIFSSLTMAWWRQAPGKQRELVAGITTDGSTDYADSVKGRFTISRDNAKNTVYLQMDSLKPEDTAVYYCNKSPYYDPTDYDSWGQGTQVTVSS
B16: VHH11 SEEDbody eff- (bispecific antibody, part only; not given: silenced SEED Fc and cetuximab Fab, V domains shown, not shown: another chain or arm of the molecule; a dimerising Fc or GST; small tags and cut ends)
VHH: DVQLQESGGGLVQAGGSLRLSCAASGRTFSSDFMGWFRQAPGKEREFVAAIHWSGGSTSYADSVKGRFTISRDNAKDTVYLLMNSLKLEDTAVYYCAAEIRWLTTGWANLGSWGQGTQVTVSS
B17: VHH13 SEEDbody eff- (bispecific antibody, part only; not given: silenced SEED Fc and cetuximab Fab, V domains shown, not shown: another chain or arm of the molecule; a dimerising Fc or GST; small tags and cut ends)
VHH: B16 VHH with V12A, A14P, S17P, S30T, T58R, L103Q, T105A, A108V
B18: VHH9 SEEDbody eff- (bispecific antibody, part only; not given: silenced SEED Fc and cetuximab Fab, V domains shown, not shown: another chain or arm of the molecule; a dimerising Fc or GST)
VHH: DVQLQESGGGLVQAGGSLRLSCAASGRGGASYAMGWFRQAPGKEREFVAAISWTGDTTYNVDSVKGRFTISSDNAKNPVYLDMSSLKPEDTAVYYCAAAHWTRVVAKGAMADEKKYEYWGQGTQVTVSS
B19: VHH5 SEEDbody eff- (bispecific antibody, part only; not given: silenced SEED Fc and cetuximab Fab, V domains shown, not shown: another chain or arm of the molecule; a dimerising Fc or GST; small tags and cut ends)
VHH: DVQLQESGGGLVQPGESLRLSCLVSGVTYHFYDITWFRQAPGLEREGVSCISYASGSTKFADSVKGRFTISRDNAKNAVYLQMNSLKPEDTAVYFCATQGSGSCSDFMSADSVLSWGQGTQVTVSS
B20: VHH4 SEEDbody eff- (bispecific antibody, part only; not given: silenced SEED Fc and cetuximab Fab, V domains shown, not shown: another chain or arm of the molecule; a dimerising Fc or GST; small tags and cut ends)
VHH: B19 VHH with T98M
B21: VHH3 SEEDbody eff- (bispecific antibody, part only; not given: silenced SEED Fc and cetuximab Fab, V domains shown, not shown: another chain or arm of the molecule; a dimerising Fc or GST; small tags and cut ends)
VHH: B19 VHH with R19K, S57T, Q82E, D111G
B22: VHH6 SEEDbody eff- (bispecific antibody, part only; not given: silenced SEED Fc and cetuximab Fab, V domains shown, not shown: another chain or arm of the molecule; a dimerising Fc or GST; small tags and cut ends)
VHH: DVQLQESGGGLVQTGGSLRLSCAASGLPFSKYAIAWFRQAPGKESEFLVVVSWSGDKFYQDNMKGRCTISRDNAKNTAYLQINSLQPEDTAVYYCAASGSYPVTDRYFYNFWGQGTQVTVSS
B23: VHH10 SEEDbody eff- (bispecific antibody, part only; not given: silenced SEED Fc and cetuximab Fab, V domains shown, not shown: another chain or arm of the molecule; a dimerising Fc or GST; small tags and cut ends)
VHH: DVQLQESGGGSVQAGGSLRLSCAASGRTFSSNFMGWFRQAPNKDREFVAAIHWSGGSRAYADSVKGRFTISRDNTKDTVYLLVNSLKLEDTAVYYCAAEISWQTTGWTNLGSWGQGTQVTVSS
B24: VHH12 SEEDbody eff- (bispecific antibody, part only; not given: silenced SEED Fc and cetuximab Fab, V domains shown, not shown: another chain or arm of the molecule; a dimerising Fc or GST; small tags and cut ends)
VHH: B16 VHH with T58R, L103Q
B25: VHH14 SEEDbody eff- (bispecific antibody, part only; not given: silenced SEED Fc and cetuximab Fab, V domains shown, not shown: another chain or arm of the molecule; a dimerising Fc or GST; small tags and cut ends)
VHH: DVQLQESGGGLVQPGGSLRLSCEASGVTFNFYSMTWYRQAPGKERELVADITSEGRTEYAHSVKGRFIISRDDFGTMVYLQMNSLKPEDTAVYYCYTGGSWGQGTQVTVSS

Assays:
[1] = target: NKp30 on human NK cells (human) (UniProt O14931); assay: cell-based or functional assay
[2] = target: recombinant human NKp30 extracellular domain, his-tagged (human) (UniProt O14931); assay: BLI, SEEDbody on anti-human Fc sensors, soluble NKp30, 1:1 fit
[3] = target: T1, recombinant human NKp30 extracellular domain, his-tagged (human, UniProt O14931 19-135); assay: BLI as in Example 1, maximum binding capacity
T1 construct: BLI used human NKp30 bought from Abcam (his-tagged ECD); also called rh NKp30 ECD; human NKp30 (Abcam); not shown: his tag
T1 sequence: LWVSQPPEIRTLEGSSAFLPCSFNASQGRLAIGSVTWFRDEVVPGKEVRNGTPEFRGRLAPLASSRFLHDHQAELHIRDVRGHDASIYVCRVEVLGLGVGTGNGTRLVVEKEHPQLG

[4] = target: T1, recombinant human NKp30 extracellular …; assay: BLI as in Example 1

Binder | EC50 (nM), MNC based killing of A431 cells, E:T 80:1 [1] [nM] | Max. Killing (% Lysis), MNC based killing of A431 cells, E:T 80:1 [1] [% Lysis] | Kd [2] [nM] | koff [2] [s⁻¹] | kon [2] [M⁻¹ s⁻¹] | Emax (nm) [3] [nm] | Kd [4] [nM] | Max. IFNγ release (pg/ml), NK cells with A431 cells [1] [pg/mL] | Max. TNFα release (pg/ml), NK cells with A431 cells [1] [pg/mL]
B1 | 0.0013 | 50 | < 0.001 | < 1e-07 | 440000 | – | – | – | –
B2 | – | – | – | – | – | 0.17 | 2.88 | – | –
B3 | – | – | – | – | – | 0.16 | 4.7 | – | –
B4 | – | – | – | – | – | 0.07 | 12.3 | – | –
B5 | – | – | – | – | – | 0.07 | 27.6 | – | –
B6 | – | – | – | – | – | 0.18 | 2.91 | – | –
B7 | – | – | – | – | – | 0.13 | 9.97 | – | –
B8 | – | – | – | – | – | 0.1 | 6.61 | – | –
B9 | – | – | – | – | – | 0.11 | 2.92 | – | –
B10 | – | – | – | – | – | 0.14 | 4.24 | – | –
B11 | – | – | – | – | – | 0.15 | 2.1 | – | –
B12 | – | – | – | – | – | 0.1 | 9.76 | – | –
B13 | 0.0433 | 49 | 52.4 | 0.00352 | 67200 | – | – | – | –
B14 | 0.00899 | 50 | 0.322 | 0.000134 | 416000 | – | – | 595 | 109
B15 | 0.00128 | 50 | 0.139 | 9.28e-05 | 666000 | – | – | 515 | 114
B16 | 0.0111 | 50 | 1.02 | 0.000415 | 405000 | – | – | – | –
B17 | 0.00241 | 51 | 0.211 | 0.000162 | 766000 | – | – | – | –
B18 | 0.0161 | 53 | 4.99 | 0.00187 | 376000 | – | – | – | –
B19 | 0.00286 | 56 | 0.289 | 0.000186 | 643000 | – | – | 635 | 119
B20 | 0.00592 | 55 | 2.57 | 0.000218 | 84800 | – | – | 560 | 129
B21 | 0.00284 | 53 | 0.281 | 0.00017 | 604000 | – | – | – | –
B22 | 1.43 | 42 | 292 | 0.129 | 442000 | – | – | – | –
B23 | 0.0146 | 51 | 0.253 | 8.75e-05 | 346000 | – | – | – | –
B24 | 0.00207 | 49 | 0.982 | 0.000898 | 914000 | – | – | – | –
B25 | 0.00144 | 51 | 0.31 | 0.000144 | 464000 | – | – | – | –
